Measured values taken from paper PMC8080410 (Bioactive Materials, 2021).

B1: E-OVA_(323-336) (peptide)
peptide: EWEAEAEAEWEGGGQAVHAAHAEINEAGR

Columns and labels:
TEM + DLS = target: the molecule itself; assay: TEM + DLS
E-OVA_(323-336) = target: B1; assay: TEM + rheology + circular dichroism

binding result (E-OVA_(323-336))	Binder	binding result (TEM + DLS)
binds	KWKAKAKAKWKGGGSIINFEKL [K-OVA_(257-264)]	binds
–	B1	binds
